Test results from paper PMC5245964 (2017).

Target: MBP-M18BP1^1-140-8His (Homo sapiens (Human), UniProt Q6P0N0)
Experiment: amylose-resin pull-down, CBB-stained gel; Mis18β Yippee domain alone does not bind; binding requires the Mis18α:Mis18β Yippee heterodimer (Mis18α Yippee domain present)

MBP-M18BP1^1-140-8His, sequence (Q6P0N0 1-140, one chain of several): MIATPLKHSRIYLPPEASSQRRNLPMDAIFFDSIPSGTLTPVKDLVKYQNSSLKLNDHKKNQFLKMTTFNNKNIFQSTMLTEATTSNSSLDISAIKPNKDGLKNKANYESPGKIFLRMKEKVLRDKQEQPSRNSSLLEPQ

binding result: no binding
B1: 6His-Mis18β^73-189 (protein)
chain: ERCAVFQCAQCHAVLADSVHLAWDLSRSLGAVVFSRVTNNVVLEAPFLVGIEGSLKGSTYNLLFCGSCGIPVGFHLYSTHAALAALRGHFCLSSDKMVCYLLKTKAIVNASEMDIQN
